{"source": "patent US20230312744A1", "about": "“Modulatory Substance of Tumor Immune Microenvironment, and Preventive, Diagnostic and/or Therapeutic Utilization of the Same” (The University Of Tokyo, priority 2020, published 2023)", "molecules": {"B1": {"name": "55F3: Mouse monoclonal antibody against human TCTP peptide SEQ ID NO: 25; CDRs SEQ ID NO: 1-6, VH SEQ ID NO: 19, VL SEQ ID NO: 22 (antibody, listed as Mus musculus)", "VH": "MRVLILLWLFTAFPGILSDVQLQESGPGLVKPSQSLSLTCTATGYSIASDYAWNWIRQFPGNKLEWMGYINYSGSTGYNPSLKSRISITRDTSKNQFFLQLNSVTTEDTATYYCARFEAGYWGQGTTLTVSSAKTTPPSVYPLAPGSAAQTNSMVTLGCLVKGYFPEPVT", "VL": "MDMRTPAQFLGILLLWFPGIKCDIKMTQSPSSMSASLGERVTITCKASQDINRYLSWFQQKPGKSPKTLIYRANRLVDGVPSRFSGSGSGQDYSLTISSLEYGDMGIYYCLQYNEFPLTFGAGTKLELKRADAAPTVSIFPPSSEQLTSGGASVVCFLN"}}, "tested_on": "PMN-MDSCs in the TIME", "assay": "Flow cytometry of tumor-infiltrating cells from SL4 tumors (PMN-MDSCs in CD45+ cells)", "type": "in vivo", "settings": "55F3 200 μg/mouse i.p., Day 13 after transplantation, ratio of PMN-MDSCs to CD45+ cells, vs control IgG", "procedure": "In FIG. 13(a), SL4 cells (1×10^5 cells) were subcutaneously transplanted into C57BL/6 mice. The monoclonal antibody (55F3) (n=5) reacting against TCTP or control IgG (n=6) was intraperitoneally administered to the mice, every other day from one day after the transplantation (200 μg/mouse). The tumor volume was measured over time. In FIG. 13(b), on Day 13 after the transplantation, single cell suspensions were prepared from tumors, and were then subjected to a flow cytometry analysis (n=5). […] In FIG. 13(c), SL4 cells (1×10^5 cells) were subcutaneously transplanted into C57BL/6 mice (n=6). After the transplantation, DHA (50 mg/kg) was intraperitoneally […] into the mice every day. The tumor volume was measured over time. […] The tumor volume was measured over time. […] In FIG. 13(f), the amount of TCTP in sera derived from healthy subjects (people who are not affected with cancer) (n=5) and colorectal cancer patients (n=14) was quantified by immunoblotting. […] In FIG. 13 (g), (right view) the relative staining intensity by the anti-TCTP antibody was semi-quantified, and the staining intensity of the colorectal cancer tissues was compared with the staining intensity of the normal large intestinal tissues (n=45). […]\nTumor-infiltrating cells were recovered after subcutaneous transplantation of a tumor into mice, and were then analyzed by flow cytometry. […]"}
{"molecule": "B1", "values": [{"measurement": "amount of PMN-MDSCs in the TIME", "value": "decreased"}]}
